For 34 variants, self-cleavage results are on record in the RNAGym collection of RNA variant scans (doi:10.1093/nar/gkz1192).

The labels stand for the following.
B1: CPEB3 Ribozyme (parent)
chain: UAACAGGGGGCCACAGCAGAAGCGUUCACGUCGCAGCCCCUGUCAGAUUCUGGUGAAUCUGCGAAUUCUGCUGUAUAUCUC

The variants in the data set derive from B1. In words: self-cleavage, relative activity (ratio to wild type); higher = more cleavage; in vitro, sequencing. The gist of the method: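 After error-prone PCR and barcoding, CPEB3 ribozyme mutant libraries were transcribed with T7 RNA polymerase at 37°C for 5 hours, then given 15 min with DNase I before an EDTA stop, and they cleaved during both steps. Reverse transcription with template switching preceded Illumina sequencing. Relative activity divides a variant's cleaved/total read fraction by the unmutated ribozyme's. At least 5 reads were required per variant, and three batches were averaged.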
With UAACAGGGGGCCACAGCAGAAGCGUUCACGUCGCAGCCCCUGUCAGAUUCUGGAGAAUCUGCGAAUGCUGCUGUAUAUCUC [U54A U67G], the self-cleavage worked out at 0.36.
With UAACGGGGGGCCACAGCAGAAGCGCUCACGUCGCAGCCCCUGUCAGAUUCUGGUGAAUCUGCGAAUUCUGCUGUAUAUCUC [A5G U25C] the figure was 0.39; with UAACAGGGGGCCACAGCUGAAGCGUUCACGUCGCAGCCCCUGUCAGAUUCUGGUGAAUCUGCGAAUUCUGCUGUAUAUCUG [A18U C81G], 0.27.
For UAACAGGGGGCCGCAGCAGAAGCGUUCACGUCGCAGCCCCUGUCAGAUUCUGGUGAAUCUGAGAAUUCUGCUGUAUAUCUC [A13G C62A] the value was 0.18; for UAACAGGGGGCCACAGCAGAAGCGUUCACGUCGCCGCCCCUGUCAGAUUCUGGUGAAUCUGCGAAUGCUGCUGUAUAUCUC [A35C U67G], 0.39; for UAACAGGGGGCCACAGCAGAAGCGUUCACGUCGCAGCCCCCGUCAGAUUCUGGUGAUUCUGCGAAUUCUGCUGUAUAUCUC [U41C A57U], 0.78.
Regarding UAACAGGGGGCCACAGCAGAAGCGUUCACGUCGCAGCCCCCGUCAGAUUCUGGUGACUCUGCGAAUUCUGCUGUAUAUCUC [U41C A57C], the self-cleavage came out at 0.58.
For the variant UAACAGGGGGCCACAGCAGAAGCGUUCACGUCGCAACCCCUGUCAGACUCUGGUGAAUCUGCGAAUUCUGCUGUAUAUCUC [G36A U48C], the self-cleavage amounted to 0.19.
For UAACAGGGGGCCACAGCAGAAGCCUUCACGGCGCAGCCCCUGUCAGAUUCUGGUGAAUCUGCGAAUUCUGCUGUAUAUCUC [G24C U31G] the value was 0.34; for UAGCAGGGGGCCACAGCAGAAGCGUUCACGUCGCAGCCCCUGUCAGAUUCUGGUGAAUCUGCGAAUGCUGCUGUAUAUCUC [A3G U67G], 0.37.
In the case of UAACAGGGGGCCACAGCAGAAGCGUUCACGUCGCAGCCCCCGUCAGAUUCUGGUGAAUCUGCGAAUUCUGCUGUACAUCUC [U41C U76C], the self-cleavage is 1.05.
With UAACAGGGGGCCACAGCAGAAGCGUUCACGUCGCAGCCCCUGUCAGAUUCUUGUGAAUCUGCGUAUUCUGCUGUAUAUCUC [G52U A64U], the self-cleavage came out at 0.39.
For UAACAGGGGGCCACAGCAGAAGCGUUCACGUCGCAGCCCCUGUCAGACUCUGGUGAAUCUGCGAAUUCUGCUGUGUAUCUC [U48C A75G] the value was 0.43.
In the case of UAACAGGGGGCCACAGCAGAAGCGUUCACGUCGCAGCCCCUGUCAGAUUCUGGUGAAUCUGCGAAUUCUGCUGUGAAUCUC [A75G U76A], the self-cleavage was determined as 1.05.
With UAACAGGGGGCCACAGCAGAAGCGUUCACGGCGCAGCCCCUGUCAGAUUCUGGUGAAUCUGCGAAUUCUGCUGAAUAUCUC [U31G U74A] the figure was 1.02; with UAACAGGGGGCCACAGCAGAAGCGUUCACGUCGCAGCCCCUGUCAGUUUCUGGUGAACCUGCGAAUUCUGCUGUAUAUCUC [A47U U58C], 0.39.
Turning to UAACUGGGGGCCACAGCAGAAGCGUUCACGUCGCAGCCCAUGUCAGAUUCUGGUGAAUCUGCGAAUUCUGCUGUAUAUCUC [A5U C40A], the self-cleavage worked out at 0.09.
With UAACAGGGGGCCACAGCAGAAGGGUUCACGUCGCAGCCCCUGUCAGAUUCAGGUGAAUCUGCGAAUUCUGCUGUAUAUCUC [C23G U51A] the figure was 0.16; with UAACAGGGGGCCACAGCAGAAGCGUUCACGUCGCAGCCCCUGUCAGAUUCUGGAGAAUCUGCGGAUUCUGCUGUAUAUCUC [U54A A64G], 0.92.
For UAACAGCGGGCCACAGCAGAAGCGUUCACGACGCAGCCCCUGUCAGAUUCUGGUGAAUCUGCGAAUUCUGCUGUAUAUCUC [G7C U31A] the value was 0.25; for GAACUGGGGGCCACAGCAGAAGCGUUCACGUCGCAGCCCCUGUCAGAUUCUGGUGAAUCUGCGAAUUCUGCUGUAUAUCUC [U1G A5U], 0.98; for UAACAGGGGGCCACAGCAGAAGCGUUCACGUCGCAGCCCCUGUCAGAUUCUGGUGAGUCUGCGAAUUCUGCUGUAUGUCUC [A57G A77G], 0.87.
For UAACAGGGGGCCACAGCACAAGCGUUCACGUCGCAGCCCCUGUCAGACUCUGGUGAAUCUGCGAAUUCUGCUGUAUAUCUC [G19C U48C] the value was 0.35; for UAACAGGGGGCCACAGCAGAAGCGAUCACGUCGCAGCCCCUGUCAGAUUCUGAUGAAUCUGCGAAUUCUGCUGUAUAUCUC [U25A G53A], 0.28; for UAGCAGGGGACCACAGCAGAAGCGUUCACGUCGCAGCCCCUGUCAGAUUCUGGUGAAUCUGCGAAUUCUGCUGUAUAUCUC [A3G G10A], 0.46.
Regarding UAACAGGGGGCCACAGCGGAAGCGUUCACGUCGCAGCCCCUUUCAGAUUCUGGUGAAUCUGCGAAUUCUGCUGUAUAUCUC [A18G G42U], the self-cleavage is 0.27.
As to AAACAGGGGGCCACAGCAGAAGCGUUCACGUCGCAGCCCCUGUCAGAUUCUGGUGAAUCUGCGGAUUCUGCUGUAUAUCUC [U1A A64G], the self-cleavage stood at 0.84.
On to AAACAGUGGGCCACAGCAGAAGCGUUCACGUCGCAGCCCCUGUCAGAUUCUGGUGAAUCUGCGAAUUCUGCUGUAUAUCUC [U1A G7U], for which the self-cleavage was found to be 0.3.
For the variant UAACAGGGGGCCUCAGCAGAAGCGUUCACGUCGCAGCCCCUGUCAGAUUCUGGUGAAUCUGCGAAUUCUGCUGUAUACCUC [A13U U78C], the self-cleavage stood at 1.23.
Regarding UAACAGGGGGCCACAGCAGAAGCGUUCGCGUCGCAGCCCCUGUCAGAUUCUGGUGAAUCUGCGAGUUCUGCUGUAUAUCUC [A28G A65G], the self-cleavage turned out to be 0.33.
With UAACAAGGGGCCACAGCGGAAGCGUUCACGUCGCAGCCCCUGUCAGAUUCUGGUGAAUCUGCGAAUUCUGCUGUAUAUCUC [G6A A18G], the self-cleavage came to 0.31.
For UAACAUGGGGCCACAGCAGAAGCGUUCGCGUCGCAGCCCCUGUCAGAUUCUGGUGAAUCUGCGAAUUCUGCUGUAUAUCUC [G6U A28G], the self-cleavage is 0.38.
Take UAACAGGGGGCCACAGCAGAAGCGUUCACGUUGCAGCCCCUGUCAGAUACUGGUGAAUCUGCGAAUUCUGCUGUAUAUCUC [C32U U49A]: the self-cleavage turned out to be 0.15.
UAACAGGGGGCCACAGCAGAAGCGCUCACGUCGCAGCCCCUGUCAGAUUCUGGUUAAUCUGCGAAUUCUGCUGUAUAUCUC [U25C G55U]: the self-cleavage came out at 0.21.
